These results are taken from US20160137696A1 (Bristol-Myers Squibb, published 2016).

Starred links: 1 amine or outer side, 2 acyl side, 3 side chain; linkers in the order of their positions; H or OH if unused. Positions of bridges follow the written chain, without caps; N, C: chain ends. Non-standard residues stand in square brackets, D forms with d. Groups on a side chain read outwards from the residue. Primed or numbered codes have the meaning given here. No end group written: not given here. *: point of attachment. PEG8′ = PEG8 unit (23-azido-3,6,9,12,15,18,21-heptaoxatricosyl, i.e. an eight-unit PEG spacer) linking the triazole to vitamin E succinate; Pra′ = propargylglycine (built in as LPH), clicked to a 1-substituted triazol-4-yl-alanine, O=C([C@H](Cc1cn([*:3])nn1)N[*:1])[*:2]; X1 = (S)‑3‑carboxy‑3‑(15-carboxypentadecanoylamino)propyl, O=C(O)CCCCCCCCCCCCCCC(=O)N[C@@H](CC*)C(=O)O; Pra″ = its azide, alkyne or alkene has reacted where a group follows in round brackets; X2 = (S)‑3‑carboxy‑3‑palmitamidopropyl, CCCCCCCCCCCCCCCC(=O)N[C@@H](CC*)C(=O)O; Pra(3) = propargylglycine, clicked to an azide to give a triazolyl-alanine; triazole = 1,2,3-triazole formed by click of the Pra alkyne with the azide; Trp(1-CH2CO) = O=C([C@H](Cc1cn(CC(=O)[*:3])c2ccccc12)N[*:1])[*:2]; Phe(3,4,5-F3) = N[C@@H](Cc1cc(F)c(F)c(F)c1)C(=O)O; Biotin = O=C1N[C@H]2[C@H](CS[C@H]2CCCCC(=O)*)N1; C18 diacid = O=C(O)CCCCCCCCCCCCCCCCC(=O)*; Phe(4-F) = N[C@@H](Cc1ccc(F)cc1)C(=O)O; γGlu = O=C(O)[C@H](CCC(=O)[*:2])N[*:1]; Palmitoyl = CCCCCCCCCCCCCCCC(=O)*; Hyp = O=C(O)[C@@H]1C[C@@H](O)CN1; NMeF = CN[C@@H](Cc1ccccc1)C(=O)O; NMeE = CN[C@@H](CCC(=O)O)C(=O)O; dHyp = O=C(O)[C@H]1C[C@H](O)CN1; NMeNle = CCCC[C@H](NC)C(=O)O; Suc = O=C(CCC(=O)[*:2])[*:1]; triazole″ = not defined here; Pip = O=C(O)[C@@H]1CCCCN1; NMeA = CN[C@@H](C)C(=O)O; Orn = NCCC[C@H](N)C(=O)O; PEG4′ = not defined here; PEG7′ = not defined here; Pra = C#CC[C@H](N)C(=O)O; Dab = NCC[C@H](N)C(=O)O; Dap = NC[C@H](N)C(=O)O; Sar = CNCC(=O)O

Assay [1] addresses T1, Recombinant Human PD-L1-TVMV-His (human, UniProt Q9NZQ7 19-239).
T1 construct: expressed in HEK293T cells; also called PD-L1-His; hPD-L1(19-239)-TVMV-His
Description: HTRF vs PD-1-Ig. The method, then: (§1) Homogenous Time-Resolved Fluorescence (HTRF) Assays of Binding of Soluble PD-1 to Soluble PD-L1. Soluble PD-1 and soluble PD-L1 refers to proteins with carboxyl-end truncations that remove the transmembrane-spanning regions and are fused to heterologous sequences, specifically the Fc portion of the human immunoglobuling G sequence (Ig) or the hexahistidine epitope tag (His). All binding studies were performed in an HTRF assay buffer consisting of dPBS supplemented with 0.1% (w/v) bovine serum albumin and 0.05% (v/v) Tween-20. For the PD-1-Ig/PD-L1-His binding assay, inhibitors were pre-incubated with PD-L1-His (10 nM final) for 15 m in 4 μl of assay buffer, followed by addition of PD-1-Ig (20 nM final) in 1 μl of assay buffer and further incubation for 15 m. PD-L1 fusion proteins from either human, cynomologous macaques, mouse, or other species were used. HTRF detection was achieved using europium crypate-labeled anti-Ig monoclonal antibody (1 nM final) and allophycocyanin (APC) labeled anti-His monoclonal antibody (20 nM final). Antibodies were diluted in HTRF detection buffer and 5 μl was dispensed on top of binding reaction. The reaction was allowed to equilibrate for 30 minutes and signal (665 nm/620 nm ratio) was obtained using an EnVision fluorometer. Additional binding assays were established between PD-I-Ig/PD-L2-His (20 and 5 nM, respectively), CD80-His/PD-L1-Ig (100 and 10 nM, respectively) and CD80-His/CTLA4-Ig (10 and 5 nM, respectively). Binding/competition studies between biotinylated Compound No. 71 and human PD-L1-His were performed as follows. Macrocyclic peptide inhibitors were pre-incubated with PD-L1-His (10 nM final) for 60 minutes in 4 μl of assay buffer followed by addition of biotinylated Compound No. 71 (0.5 nM final) in 1 μl of assay buffer. Binding was allowed to equilibrate for 30 minutes followed by addition of europium crypated labeled Streptavidin (2.5 pM final) and APC-labeled anti-His (20 nM final) in 5 μl of HTRF buffer. The reaction was allowed to equilibrate for 30 m and signal (665 nm/620 nm ratio) was obtained using an EnVision fluorometer.
A general note: In TR-FRET formats the signal depends on donor and acceptor labels being close together.

For assay [2], the target named is T1, Recombinant Human PD-L1-TVMV-His. In words: HTRF vs PD-1-Ig; A = IC50 0.10-1.6 µM. Here is the method: as §1
The target is the same in assay [3]. Description: HTRF vs PD-1-Ig; B = IC50 0.01-0.099 µM. The method, then: as §1

T1 sequence (Q9NZQ7 other isoform, or with tags, fused parts or gaps limits assumed): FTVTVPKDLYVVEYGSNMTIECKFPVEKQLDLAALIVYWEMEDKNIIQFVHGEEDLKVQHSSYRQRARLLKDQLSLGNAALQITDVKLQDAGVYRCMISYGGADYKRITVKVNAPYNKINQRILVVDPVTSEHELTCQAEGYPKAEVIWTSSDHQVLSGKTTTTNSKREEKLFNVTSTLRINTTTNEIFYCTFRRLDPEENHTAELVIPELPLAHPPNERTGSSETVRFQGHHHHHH

A word on the IC50: it is the concentration at which inhibition is half-maximal. {CH2CO}-F[NMeF][NMeNle][Sar]DV[NMeF]Y[NMeE]WYLCGGGK([PEG4‑propionyl-Biotin])-NH2 (thioether N-13) [Example 3620]: the IC50 in assay [1] is 9 nM.

Turning to {CH2CO}-Y[NMeA]DPHK[Hyp]WKW[NMeNle][NMeNle]ECG[Pra′]([triazole-X1]) (thioether N-14) [Example 14067], in assay [1], the IC50 was 10.4 nM.

As for {CH2CO}-Y[NMeA]NP[Dap]L[Hyp]W[Dab][Trp(1-CH2CO)][NMeNle][NMeNle]LCGG[Pra″]([triazole-PEG7′-γGlu-C18 diacid]) (thioether N-14 (inferred)) [Example 13123], the IC50 in assay [1] was determined as 150 nM.

For {CH2CO}-[Phe(4-F)][Pip]DP[Dap]L[Hyp]W[Dab][Trp(1-CH2CO)][NMeNle][NMeNle]LCG[Dab]([γGlu-C18 diacid]) (thioether N-14 (inferred)) [Example 13150], the concentration for half-maximal inhibition (IC50) in assay [1] amounted to 20.9 nM.

B1: INT-1400J (peptide)
peptide: {CH2CO}-Y[NMeA]DPHK[Hyp]WK[Trp(1-CH2CO)][NMeNle][NMeNle]ECG[Pra]
modifications: thioether N-14; not fully specified (C-terminus); printed as ClAc-Tyr-mAla-Asp-Pro-His-Lys-Hyp-Trp-Lys-Trp(1-carboxymethyl)-mNle-mNle-Glu-Cys-Gly-[(S)-propargylglycine], cyclised ClAc-Cys
notes: also called Intermediate 1400J
In the case of B1, the IC50 in assay [1] was 8.8 nM.

{CH2CO}-[Phe(3,4,5-F3)][NMeF][NMeNle][dP]DV[NMeF][Orn][dP]WYLCG[Pra′]([triazole-X2]) (thioether N-13) [Example 14081]: the IC50 in assay [2] fell in the range of 100 to 1600 nM.

B2: Example 14084 (peptide)
peptide: {CH2CO}-[Phe(3,4,5-F3)][NMeF][NMeNle][dHyp]DV[NMeF]D[dP]WYLCG[Pra″]([triazole-(S)‑3‑carboxy‑3‑aminopropyl-Palmitoyl])
modifications: thioether N-13; not fully specified; printed as ClAc-F3Phe-mPhe-mNle-dHyp-Asp-Val-mPhe-Asp-dPro-Trp-Tyr-Leu-Cys-Gly-[(S)-propargylglycine]
As for B2, in assay [1], the IC50 stood at 627 nM.

For {CH2CO}-Y[NMeA]DPHK[Hyp]WK[Trp(1-CH2CO)][NMeNle][NMeNle]ECG[Pra′]([triazole-X1]) (thioether N-14) [Example 14078], the IC50 in assay [3] is 10 to 99 nM; in assay [1], 10.8 nM.

B3: Example 14088 (peptide)
peptide: FFXPDVFDPWYLCGX
modifications: as m17 (INT 1400L); Pra triazole-linked to vitamin E succinate 5-azidopentylamide
Take B3: the IC50 in assay [1] was found to be 799 nM.

With {CH2CO}-Y[NMeA]DPHK[Hyp]WKW[NMeNle][NMeNle]ECG[Pra(3)]([triazole″-PEG4′-Suc-vitamin E])G (thioether N-14; reading uncertain) [Example 14060], in assay [2], the 50% inhibitory concentration (IC50) was in the range of 100 to 1600 nM.

B4: Example 14087 (peptide)
peptide: FFXPDVFXPWYLCGX
modifications: as m16 (INT 1400K); Pra triazole-linked to vitamin E succinate 5-azidopentylamide
In the case of B4, the IC50 in assay [2] was 100 to 1600 nM.

As for {CH2CO}-Y[NMeA]DPHQ[Hyp]WSW[NMeNle][NMeNle]ECG[Pra(3)]([triazole″-PEG8′-Suc-vitamin E])G (thioether N-14; reading uncertain) [Example 14055], in assay [1], the concentration for half-maximal inhibition (IC50) was 388 nM.

In the case of {CH2CO}-Y[NMeA]NP[Dap]L[Hyp]W[Dab][Trp(1-CH2CO)][NMeNle][NMeNle]LCGG[Pra″]([triazole-(S)‑4‑azido‑2‑palmitamidobutanoic acid]) (thioether N-14 (inferred)) [Example 13122], in assay [2], the IC50 fell in the range of 100 to 1600 nM.

Turning to {CH2CO}-Y[NMeA]DPHK[Hyp]WK[Trp(1-CH2CO)][NMeNle][NMeNle]ECG[Pra′]([triazole-X2]) (thioether N-14) [Example 14072], the IC50 in assay [1] is 8.5 nM.
